Starred links: 1 amine or outer side, 2 acyl side, 3 side chain; linkers in the order of their positions; H or OH if unused. Non-standard residues stand in square brackets, D forms with d. Groups on a side chain read outwards from the residue. *: point of attachment. Hexadecanoyl(16-SO3H) = O=C(CCCCCCCCCCCCCCCS(=O)(=O)O)*; C20 diacid = O=C(O)CCCCCCCCCCCCCCCCCCC(=O)*; C18 diacid = O=C(O)CCCCCCCCCCCCCCCCC(=O)*; C16 diacid = O=C(O)CCCCCCCCCCCCCCC(=O)*; γGlu = O=C(O)[C@H](CCC(=O)[*:2])N[*:1]; εLys = N[C@@H](CCCCN[*:1])C(=O)[*:2]; AEEA = NCCOCCOCC(=O)O; Aib = CC(C)(N)C(=O)O; Ahx = NCCCCCC(=O)O

One experiment concerns the target human GLP-1 receptor (human, UniProt P43220 24-463). As to the kind of experiment: cell-based or functional assay.
The target of experiment [1] is T1, human amylin-3 (a) receptor (human, UniProt P30988 25-474; O60896 24-148).
T1 sequence (looked up) 1: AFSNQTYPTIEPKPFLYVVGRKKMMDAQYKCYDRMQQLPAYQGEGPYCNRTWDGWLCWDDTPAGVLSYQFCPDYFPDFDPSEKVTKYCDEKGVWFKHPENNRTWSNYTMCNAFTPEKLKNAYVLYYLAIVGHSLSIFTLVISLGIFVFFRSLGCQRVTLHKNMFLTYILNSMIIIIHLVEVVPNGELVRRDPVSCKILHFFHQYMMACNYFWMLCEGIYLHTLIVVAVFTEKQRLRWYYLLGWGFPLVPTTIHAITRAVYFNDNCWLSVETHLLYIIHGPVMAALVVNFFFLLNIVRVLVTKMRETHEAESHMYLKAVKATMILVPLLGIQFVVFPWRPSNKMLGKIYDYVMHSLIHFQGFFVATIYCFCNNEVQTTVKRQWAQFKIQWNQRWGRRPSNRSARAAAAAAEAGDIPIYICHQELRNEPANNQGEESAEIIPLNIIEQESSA
T1 sequence (looked up) 2: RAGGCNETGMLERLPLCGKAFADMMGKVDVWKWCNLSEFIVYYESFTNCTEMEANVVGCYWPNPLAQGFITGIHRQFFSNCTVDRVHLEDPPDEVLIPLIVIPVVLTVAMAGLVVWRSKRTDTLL
As to the kind of experiment: cell-based or functional assay.

B1: Compound 0010 (peptide)
peptide: H[Aib]EGTFTSDVSSYLEGQAAREFIAWLVRGRGEGEGEK([AEEA-AEEA-γGlu-C18 diacid])EASELSTAALGRLSAELHELATLPRTETGSGSP-NH2
Turning to B1, the “Human GLP-1R potency [EC50 (pM)]” value in the experiment with human GLP-1 receptor worked out at 5.4 pM. For the same molecule, the “Human AmyR3 potency [EC50 (pM)]” value in experiment [1] is 37 pM.

B2: Compound 0077 (peptide)
peptide: H[Aib]EGTFTSDVSSYLEEQAARK([AEEA-AEEA-γGlu-C16 diacid])FIAWLVK([AEEA-AEEA-γGlu-C16 diacid])GRGGGEASELSTAALGRLSAELHELATLPRTETGSGSP-NH2
For the molecule B2, in the experiment with human GLP-1 receptor, the “Human GLP-1R potency [EC50 (pM)]” value was found to be 2.1 pM. The “Human AmyR3 potency [EC50 (pM)]” value in experiment [1] was 25.7 pM.

B3: Compound 0659 (peptide)
peptide: H[Aib]EGTFTSDVSSYLEEQAAREFIAWLVRGRK([Ahx-Ahx-γGlu-C20 diacid])GGGGEASELSTAALGRLSAELHELATLPRTETGSGSP-NH2
As to B3, the “Human GLP-1R potency [EC50 (pM)]” value with human GLP-1 receptor amounted to 4.7 pM. The “Human AmyR3 potency [EC50 (pM)]” value in experiment [1] stood at 11.5 pM.

B4: Compound 0093 (peptide)
peptide: H[Aib]EGTFTSDVSSYLEGQAAK([AEEA-AEEA-γGlu-C18 diacid])EFIAWLVRGRGGGGGGGGGGGGGGGGGEASELSTAALGRLSAELHELATLPRTETGSGSP-NH2
For B4, the “Human GLP-1R potency [EC50 (pM)]” value with human GLP-1 receptor was found to be 7.5 pM. Moreover, in experiment [1], the “Human AmyR3 potency [EC50 (pM)]” value worked out at 8.6 pM.

B5: Compound 0654 (peptide)
peptide: H[Aib]EGTFTSDVSSYLEEQAAREFIAWLVRGRK([AEEA-AEEA-γGlu-Hexadecanoyl(16-SO3H)])GGGGEASELSTAALGRLSAELHELATLPRTETGSGSP-NH2
For B5, the “Human GLP-1R potency [EC50 (pM)]” value in the experiment with human GLP-1 receptor came to 2.9 pM. For the same molecule, the “Human AmyR3 potency [EC50 (pM)]” value in experiment [1] stood at 11.3 pM.

B6: Compound 0083 (peptide)
peptide: H[Aib]EGTFTSDVSSYLEGQAAREFIAWLVRGRK([AEEA-AEEA-γGlu-C18 diacid])GQEPGQAPEASELSTAALGRLSAELHELATLPRTETGSGSP-NH2
Turning to B6, in the experiment with human GLP-1 receptor, the “Human GLP-1R potency [EC50 (pM)]” value turned out to be 5.4 pM. The “Human AmyR3 potency [EC50 (pM)]” value in experiment [1] was found to be 46.2 pM.

B7: Compound 0076 (peptide)
peptide: H[Aib]EGTFTSDVSSYLEEQAARK([AEEA-AEEA-γGlu-C16 diacid])FIAWLVRGK([AEEA-AEEA-γGlu-C16 diacid])GGGEASELSTAALGRLSAELHELATLPRTETGSGSP-NH2
With B7, the “Human GLP-1R potency [EC50 (pM)]” value with human GLP-1 receptor was found to be 1.7 pM. Moreover, the “Human AmyR3 potency [EC50 (pM)]” value in experiment [1] stood at 46.4 pM.

B8: Compound 0074 (peptide)
peptide: H[Aib]EGTFTSDVSSYLEEQAARK([AEEA-AEEA-γGlu-C16 diacid])FIAWLVRGRGGK([AEEA-AEEA-γGlu-C16 diacid])EASELSTAALGRLSAELHELATLPRTETGSGSP-NH2
As for B8, the “Human GLP-1R potency [EC50 (pM)]” value in the experiment with human GLP-1 receptor was found to be 0.8 pM. Also, the “Human AmyR3 potency [EC50 (pM)]” value in experiment [1] was 60.9 pM.

B9: Compound 0658 (peptide)
peptide: H[Aib]EGTFTSDVSSYLEEQAAREFIAWLVRGRK([Ahx-Ahx-γGlu-C18 diacid])GGGGEASELSTAALGRLSAELHELATLPRTETGSGSP-NH2
For B9, the “Human GLP-1R potency [EC50 (pM)]” value with human GLP-1 receptor was found to be 3.1 pM. Further, in experiment [1], the “Human AmyR3 potency [EC50 (pM)]” value was 11 pM.

B10: Compound 0660 (peptide)
peptide: H[Aib]EGTFTSDVSSYLEEQAAREFIAWLVRGRK([AEEA-γGlu-C18 diacid])GGGGEASELSTAALGRLSAELHELATLPRTETGSGSP-NH2
Turning to B10, the “Human GLP-1R potency [EC50 (pM)]” value with human GLP-1 receptor stood at 3.9 pM. For the same molecule, the “Human AmyR3 potency [EC50 (pM)]” value in experiment [1] amounted to 12.7 pM.

B11: Compound 0089 (peptide)
peptide: H[Aib]EGTFTSDVSSYLEEQAARK([AEEA-AEEA-γGlu-C18 diacid])FIEWLVRGK([AEEA-AEEA-γGlu-C18 diacid])GEGGEASELSTAALGRLSAELHELATLPRTETGSGSP-NH2
Consider B11, for which the “Human GLP-1R potency [EC50 (pM)]” value with human GLP-1 receptor came to 5.7 pM. For the same molecule, the “Human AmyR3 potency [EC50 (pM)]” value in experiment [1] stood at 65.5 pM.

B12: Compound 0094 (peptide)
peptide: H[Aib]EGTFTSDVSSYLEGQAAK([AEEA-AEEA-γGlu-C20 diacid])EFIAWLVRGRGGGGGGGGGEASELSTAALGRLSAELHELATLPRTETGSGSP-NH2
Consider B12, for which the “Human GLP-1R potency [EC50 (pM)]” value with human GLP-1 receptor was 7.5 pM. For the same molecule, the “Human AmyR3 potency [EC50 (pM)]” value in experiment [1] worked out at 11.3 pM.

B13: Compound 0656 (peptide)
peptide: H[Aib]EGTFTSDVSSYLEEQAAREFIAWLVRGRK([εLys-εLys-γGlu-C18 diacid])GGGGEASELSTAALGRLSAELHELATLPRTETGSGSP-NH2
As to B13, the “Human GLP-1R potency [EC50 (pM)]” value in the experiment with human GLP-1 receptor worked out at 4.1 pM. Moreover, the “Human AmyR3 potency [EC50 (pM)]” value in experiment [1] came to 13.3 pM.

B14: Compound 0655 (peptide)
peptide: H[Aib]EGTFTSDVSSYLEEQAAREFIAWLVRGRK([AEEA-AEEA-γGlu-17‑(1H-tetrazol-5-yl)heptadecanoyl])GGGGEASELSTAALGRLSAELHELATLPRTETGSGSP-NH2
For the molecule B14, the “Human GLP-1R potency [EC50 (pM)]” value with human GLP-1 receptor came to 3 pM. The “Human AmyR3 potency [EC50 (pM)]” value in experiment [1] was 11.4 pM.

B15: Compound 0092 (peptide)
peptide: H[Aib]EGTFTSDVSSYLEGQAAK([AEEA-AEEA-γGlu-C18 diacid])EFIAWLVRGRGGGGGGGGGGGGGEASELSTAALGRLSAELHELATLPRTETGSGSP-NH2
On to B15, for which, in the experiment with human GLP-1 receptor, the “Human GLP-1R potency [EC50 (pM)]” value was determined as 18.5 pM. The “Human AmyR3 potency [EC50 (pM)]” value in experiment [1] stood at 10.9 pM.

B16: Compound 0085 (peptide)
peptide: H[Aib]EGTFTSDVSSYLEGQAAREFIAWLVRGRGQEPGQAPK([AEEA-AEEA-γGlu-C18 diacid])EASELSTAALGRLSAELHELATLPRTETGSGSP-NH2
In the case of B16, the “Human GLP-1R potency [EC50 (pM)]” value with human GLP-1 receptor was determined as 2.2 pM. In addition, the “Human AmyR3 potency [EC50 (pM)]” value in experiment [1] was 55.8 pM.

B17: Compound 0075 (peptide)
peptide: H[Aib]EGTFTSDVSSYLEGQAAK([AEEA-AEEA-γGlu-C16 diacid])EFIAWLVRGK([AEEA-AEEA-γGlu-C16 diacid])GGGEASELSTAALGRLSAELHELATLPRTETGSGSP-NH2
On to B17, for which the “Human GLP-1R potency [EC50 (pM)]” value with human GLP-1 receptor stood at 84.5 pM. In addition, the “Human AmyR3 potency [EC50 (pM)]” value in experiment [1] amounted to 43.9 pM.

B18: Compound 0661 (peptide)
peptide: H[Aib]EGTFTSDVSSYLEEQAAREFIAWLVRGRK([AEEA-AEEA-AEEA-γGlu-C18 diacid])GGGGEASELSTAALGRLSAELHELATLPRTETGSGSP-NH2
In the case of B18, the “Human GLP-1R potency [EC50 (pM)]” value with human GLP-1 receptor was found to be 2.8 pM. In addition, in experiment [1], the “Human AmyR3 potency [EC50 (pM)]” value came out at 14.4 pM.

B19: Compound 0662 (peptide)
peptide: H[Aib]EGTFTSDVSSYLEEQAAREFIAWLVRGRK([AEEA-AEEA-AEEA-AEEA-γGlu-C18 diacid])GGGGEASELSTAALGRLSAELHELATLPRTETGSGSP-NH2
Take B19: in the experiment with human GLP-1 receptor, the “Human GLP-1R potency [EC50 (pM)]” value was 3 pM. In experiment [1], the “Human AmyR3 potency [EC50 (pM)]” value was determined as 14.6 pM.

B20: Compound 0086 (peptide)
peptide: H[Aib]EGTFTSDVSSYLEEQAARK([AEEA-AEEA-γGlu-C16 diacid])FIEWLVRGK([AEEA-AEEA-γGlu-C16 diacid])GEGGEASELSTAALGRLSAELHELATLPRTETGSGSP-NH2
B20: the “Human GLP-1R potency [EC50 (pM)]” value with human GLP-1 receptor turned out to be 3.9 pM. The “Human AmyR3 potency [EC50 (pM)]” value in experiment [1] is 78.3 pM.

B21: Compound 0087 (peptide)
peptide: HGEGTFTSDVSSYLEEQAARK([AEEA-AEEA-γGlu-C16 diacid])FIEWLVRGK([AEEA-AEEA-γGlu-C16 diacid])GEGGEASELSTAALGRLSAELHELATLPRTETGSGSP-NH2
On to B21, for which, in the experiment with human GLP-1 receptor, the “Human GLP-1R potency [EC50 (pM)]” value is 23.8 pM. For the same molecule, the “Human AmyR3 potency [EC50 (pM)]” value in experiment [1] worked out at 97.9 pM.

B22: Compound 0090 (peptide)
peptide: HGEGTFTSDVSSYLEEQAARK([AEEA-AEEA-γGlu-C18 diacid])FIEWLVRGK([AEEA-AEEA-γGlu-C18 diacid])GEGGEASELSTAALGRLSAELHELATLPRTETGSGSP-NH2
B22: the “Human GLP-1R potency [EC50 (pM)]” value in the experiment with human GLP-1 receptor worked out at 32.6 pM. The “Human AmyR3 potency [EC50 (pM)]” value in experiment [1] stood at 70.9 pM.

B23: Compound 0663 (peptide)
peptide: H[Aib]EGTFTSDVSSYLEEQAAREFIAWLVRGRK([AEEA-AEEA-AEEA-AEEA-γGlu-C20 diacid])GGGGEASELSTAALGRLSAELHELATLPRTETGSGSP-NH2
For the molecule B23, the “Human GLP-1R potency [EC50 (pM)]” value with human GLP-1 receptor turned out to be 3.2 pM. Also, the “Human AmyR3 potency [EC50 (pM)]” value in experiment [1] worked out at 12.6 pM.

B24: Compound 0657 (peptide)
peptide: H[Aib]EGTFTSDVSSYLEEQAAREFIAWLVRGRK([εLys-εLys-γGlu-C20 diacid])GGGGEASELSTAALGRLSAELHELATLPRTETGSGSP-NH2
B24: in the experiment with human GLP-1 receptor, the “Human GLP-1R potency [EC50 (pM)]” value is 9.9 pM. Further, in experiment [1], the “Human AmyR3 potency [EC50 (pM)]” value turned out to be 10.4 pM.

B25: Compound 0084 (peptide)
peptide: H[Aib]EGTFTSDVSSYLEGQAAREFIAWLVRGRGQEPK([AEEA-AEEA-γGlu-C18 diacid])GQAPEASELSTAALGRLSAELHELATLPRTETGSGSP-NH2
Turning to B25, the “Human GLP-1R potency [EC50 (pM)]” value with human GLP-1 receptor worked out at 2.5 pM. In experiment [1], the “Human AmyR3 potency [EC50 (pM)]” value worked out at 14 pM.
